Data reported in article PMC12462963, “Quorum Sensing Inhibits Type III‐A CRISPR‐Cas System Activity Through Repressing Positive Regulators SarA and ArcR in Staphylococcus Aureus”.

T1: ArcR-His6 (Staphylococcus aureus TZ0912) (UniProt Q2FUY1)
T1 sequence: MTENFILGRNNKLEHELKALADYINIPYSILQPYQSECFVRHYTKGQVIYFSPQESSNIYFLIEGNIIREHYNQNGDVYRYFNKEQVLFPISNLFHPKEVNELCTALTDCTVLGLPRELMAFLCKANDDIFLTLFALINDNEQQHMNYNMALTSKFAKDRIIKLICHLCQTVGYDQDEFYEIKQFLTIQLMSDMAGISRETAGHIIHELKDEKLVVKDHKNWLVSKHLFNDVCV

T2: AgrA-His6 (Staphylococcus aureus TZ0912, UniProt Q5HEG2 1-238)
T2 sequence: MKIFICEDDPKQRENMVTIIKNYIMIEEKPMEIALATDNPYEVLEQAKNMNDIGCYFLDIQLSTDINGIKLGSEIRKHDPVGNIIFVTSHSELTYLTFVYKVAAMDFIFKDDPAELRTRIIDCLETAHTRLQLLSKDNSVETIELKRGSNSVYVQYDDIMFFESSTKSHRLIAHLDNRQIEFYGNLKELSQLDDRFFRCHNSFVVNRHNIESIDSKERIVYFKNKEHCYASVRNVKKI

T3: ArcR-His6 (Staphylococcus aureus TZ0912, UniProt Q2FUY1 1-234)
T3 sequence: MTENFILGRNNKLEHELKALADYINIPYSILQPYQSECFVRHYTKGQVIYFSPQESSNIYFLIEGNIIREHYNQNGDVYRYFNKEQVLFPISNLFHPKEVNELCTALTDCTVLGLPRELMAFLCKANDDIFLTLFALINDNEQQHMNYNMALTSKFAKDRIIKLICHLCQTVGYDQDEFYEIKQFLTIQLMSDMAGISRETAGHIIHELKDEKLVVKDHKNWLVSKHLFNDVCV


Tests used:
[1] = target: T1, ArcR-His6 (Staphylococcus aureus TZ0912); experiment: EMSA; conditions: EMSA: 750 mM NaCl, 50 mM Tris-HCl pH 7.4, 0.5 mM DTT, 0.5 mM EDTA (as printed for binding buffer), 20 ng probe in 20 uL, 30 min 37 C; 6% gel, 0.5x TBE
AgrA-His6 = target: T2, AgrA-His6; experiment: EMSA; shift from 0.25 uM; EMSA: 750 mM NaCl, 50 mM Tris-HCl pH 7.4, 0.5 mM DTT, 0.5 mM EDTA (as printed for binding buffer), 20 ng probe in 20 uL, 30 min 37 C; 6% gel, 0.5x TBE; conditions: protein: recombinant; tags: His6 (pET28a NdeI/XhoI); chain copies: 2; label: 5'-FAM; blunt
ArcR-His6 [2] = target: T3, ArcR-His6; experiment: EMSA; 7.2 uM; EMSA: 750 mM NaCl, 50 mM Tris-HCl pH 7.4, 0.5 mM DTT, 0.5 mM EDTA (as printed for binding buffer), 20 ng probe in 20 uL, 30 min 37 C; 6% gel, 0.5x TBE; conditions: protein: recombinant; tags: His6 (pET28a NdeI/XhoI); chain copies: 2; label: 5'-FAM; blunt
ArcR-His6 [3] = target: T3, ArcR-His6; experiment: EMSA; EMSA: 750 mM NaCl, 50 mM Tris-HCl pH 7.4, 0.5 mM DTT, 0.5 mM EDTA (as printed for binding buffer), 20 ng probe in 20 uL, 30 min 37 C; 6% gel, 0.5x TBE; conditions: protein: recombinant; tags: His6 (pET28a NdeI/XhoI); chain copies: 2; label: 5'-FAM; blunt

| Molecule | binding [1] | binding result (ArcR-His6 [2]) | other results |
| --- | --- | --- | --- |
| GGGAGAACTAGAGATAGAATTTGGAAAAAGATTGTTGTAAATAAAATTATTAATCAATCAAAATGTTTAGAAAACAATTTACATAATGAGAATGTGAAGTTAT (double strand) [Pcas-222-123 (Table S2: -241-142)] | no binding | – | – |
| ATATAGTAGCATGGTGTTAGTTGTCACAGTTTTTGACAGCCAAAATAACACTTGAACCTTTGTGGTTATGCTATTTATTAAAGTATCT (double strand) [Pcrispr1+25+112] | no binding | – | – |
| CATATATAATAAGTATTTAATTTTAATATATTTAAACTAATAATAATCAAATATACACTATTAACTGAAGATTTCATTGACTTGACATTTATTAAACTTT (double strand) [Pcrispr1-276-177] | no binding | – | – |
| agr P2 promoter (dsDNA) DNA 1: TACATTTAACAGTTAAGTATTTATTTCCTACAGTTAGGCAATATAATG DNA 2: CATTATATTGCCTAACTGTAGGAAATAAATACTTAACTGTTAAATGTA | – | – | binding result (AgrA-His6): binds |
| Pcas-137-108 (Table S2: -156-127) (dsDNA) DNA 1: AGAATGTGAAGTTATTAGTAAACTTAGCAA DNA 2: TTGCTAAGTTTACTAATAACTTCACATTCT | – | binds | – |
| Pcas-142-103 (Table S2: -161-122) (dsDNA) DNA 1: TAATGAGAATGTGAAGTTATTAGTAAACTTAGCAAAAGAT DNA 2: ATCTTTTGCTAAGTTTACTAATAACTTCACATTCTCATTA | – | binds | – |
| Pcas-132-113 (Table S2: -151-132) (dsDNA) DNA 1: GTGAAGTTATTAGTAAACTT DNA 2: AAGTTTACTAATAACTTCAC | – | no binding | – |
| Pcrispr1-26+24 (dsDNA) DNA 1: CTTAATATATAGAAAATTATCATAATATTTGTCAAAAAAAGTGACATTTC DNA 2: GAAATGTCACTTTTTTTGACAAATATTATGATAATTTTCTATATATTAAG | – | binds | – |
| Pcas-133-118 (Table S2: -152-137) (dsDNA) DNA 1: TGTGAAGTTATTAGTA DNA 2: TACTAATAACTTCACA | – | – | binding result (ArcR-His6 [3]): no binding |
| Pcrispr1+4+20 (dsDNA) DNA 1: TGTCAAAAAAAGTGACA DNA 2: TGTCACTTTTTTTGACA | – | – | binding result (ArcR-His6 [3]): no binding |
